From patent US11236163

Legend:
[1] = molecular target: T1, recombinant human LAG-3 fusion protein (human, UniProt P18627); experiment: SPR
T1 chain: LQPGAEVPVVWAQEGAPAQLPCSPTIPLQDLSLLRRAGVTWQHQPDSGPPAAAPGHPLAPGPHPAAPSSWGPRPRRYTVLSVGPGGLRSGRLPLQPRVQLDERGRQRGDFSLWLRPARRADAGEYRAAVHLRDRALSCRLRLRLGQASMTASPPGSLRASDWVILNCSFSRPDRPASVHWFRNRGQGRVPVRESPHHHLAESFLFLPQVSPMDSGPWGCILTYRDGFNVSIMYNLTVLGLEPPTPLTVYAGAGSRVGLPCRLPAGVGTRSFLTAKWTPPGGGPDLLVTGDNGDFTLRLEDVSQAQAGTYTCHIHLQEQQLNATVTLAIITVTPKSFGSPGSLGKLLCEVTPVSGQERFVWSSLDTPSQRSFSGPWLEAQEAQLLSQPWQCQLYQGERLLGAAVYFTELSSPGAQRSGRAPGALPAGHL

[2] = molecular target: T2, human LAG-3 (cell surface) (human, UniProt P18627); experiment: FACS, CHO-human LAG-3
T2 chain: T1 chain

Kd [1]: 4.53 nM
EC50 [2]: 12.3 nM
B1: 17E5 (antibody)
chain 1: not shown
chain 2: EIVLTQSPATLSLSPGERATLSCRASQSVSSYLAWYQQKPGQAPRLLIYDASNRATGIPARFSGSGSGTDFTLTISSLEPEDFAVYYCQQRSNWPITFGQGTRLEIK
